Assay results: the nanobody polyreactivity screen of Harvey et al. (2022)

Assay: yeast display, Sf9 membrane polyspecificity reagent, FACS + sequencing; frameworks hold sequencing errors
Outline: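 Nanobodies from a synthetic yeast display library (Saccharomyces cerevisiae BJ5465), induced 36–48 hours with galactose, were stained 1 hour at 4 °C with 10% biotinylated, detergent-solubilized Sf9 membrane reagent, enriched on streptavidin microbeads, then FACS-sorted. Anti-HA (expression) and streptavidin (reagent binding) fluorescence set low and high (top ~1%) gates. Polyreactivity labels come from the gate of origin. Genes were colony-PCR amplified, MiSeq 2 × 250 sequenced and filtered by CDR length.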

Row | Sequence | polyreactivity (PSR sort gate)
1 | QVQLVESGGGLVQAGGSLRLSCAASGFTFGRYAMGWYRQAPGKERELVATITRTGSTNYADSVKGRFTISRDNAKNTVYLQMNSLKPEDTAVYYCNAGPDRRVSYYRLLDHWGQGTQVTASS | low polyreactivity
2 | QVQLVESGGGLVQAGGSLRLSCAASGFTFGRYAMGWYRQAPGKERELVATITRTGSTNYADSVKGRFTISRDNAKNTVYLQMNSLKPEDTAVYYCNAGPDRRVSYYRLLDHWGQGTQVTVSS | low polyreactivity
3 | QVQLVESGGGLVQAGGSLRLSCAASGFTFGSNAMGWYRQAPGKEREFVAAISGSGDRTYYADSVKGRFTISRDNAKNTVYLQMNSLKPEDTAVYYCATSVRQNYFYSYDDWGQGTQVTVSS | high polyreactivity
4 | QVQLVESGGGLVQAGGSLRLSCAASGFTFGSNAMGWYRQAPGKEREFVATITKSGGRTYYADSVKGRFTISRDNAKNTVYFQMNSLKPEDTAVYYCAVALSYRTYRKDDYWGQGTQVTVSS | high polyreactivity
5 | QVQLVESGGGLVQAGGSLRLSCAASGFTFGSNAMGWYRQAPGKERELVAAINYSGVRTYYADSVKGRFTISRDNAKNTVYLQMNSLKPEDTAVSYCAKKRSKPISFDYWGQGTQVTVSS | high polyreactivity
6 | QVQLVESGGGLVQAGGSLRLSCAASGFTFGSNAMGWYRQAPGKERELVAAIRSRGGSTYYADSVKGRFTISRDNAKNTVYLQMNSLKPEDTAVYYCAADFIGRDYDYWGQGTQVTVSS | high polyreactivity
7 | QVQLVESGGGLVQAGGSLRLSCAASGFTFGSNAMGWYRQAPGKERELVAAISSTGSTYYADSVKGRFTISRDNAKNTVYLQMNSLKPEDTAVYYCNADSDTPRYDYWGQGTQVTVSS | low polyreactivity
8 | QVQLVESGGGLVQAGGSLRLSCAASGFTFGSNTMGWYRQAPGKERELVAVITWSGGSTYYADSVKGRFTISRDYAKNTVYLQMNSLKPEDTAVYSCAAEATSPLTWFDYWGQGTQVTVSS | low polyreactivity
9 | QVQLVESGGGLVQAGGSLRLSCAASGFTFGSYAMGWYRPAPGKERELVAGISRGGSTNYADSVKGRFTISRDNAKNTVYLQMNSLKPEDTAVYYCAAYVIGPDQFIYDYWGQGTQVTVSS | low polyreactivity
10 | QVQLVESGGGLVQAGGSLRLSCAASGFTFGSYAMGWYRQAPGKERELVAAISGRGGSTYYADSVKGRFTISRDNAKNTVYLQMNSLKPEDTAVYYCATDYSRTFDYWGQGTQVTVSS | high polyreactivity
11 | QVQLVESGGGLVQAGGSLRLSCAASGFTFGSYAMGWYRQAPGKERELVAAITRSGGGTYYADSVKGRFTISRDNAKNTVYLQMNSLKPEDTSVYYCAAGALQRGVYGFGYWGQGTQVTVSS | high polyreactivity
12 | QVQLVESGGGLVQAGGSLRLSCAASGFTFGSYAMGWYRQAPGKERELVAGISRGGSTNYADSVKGRFTISRDNAKNTVYLQMNSLKPEDTAVYYCAARAVYVADTGATPAGYDYWGQGTQVTVSS | low polyreactivity
13 | QVQLVESGGGLVQAGGSLRLSCAASGFTFGTYAMGCYRPAPGKERELVAAISKRGGSTYYADSVKGRFTISRDNAKNTVYLQMNSLKPEDTAVYYCAATRPYSHRDYFYWGQGTQVSVSS | high polyreactivity
14 | QVQLVESGGGLVQAGGSLRLSCAASGFTFGTYAMGWYRQAPGKERELVARISRRSGSTYYADSVKGRFTISRDKAKNTVYLQMNSLKPEDTAVYYCAADSRAKRYYWGQGTQVTVSS | high polyreactivity
15 | QVQLVESGGGLVQAGGSLRLSCAASGFTFGVYAMGWYRQAPGKERELVAAITATGGSTYYADSVKGRFTISRDNAKNTVYLQMNSLKPADTEVYYCAKPDYYRMGYWVQGTQVTVSS | low polyreactivity
16 | QVQLVESGGGLVQAGGSLRLSCAASGFTFGWYAMGWYRQAPGKERELVAAISRRGGTTYYADSVKGRFTISRDNAKNTVYLQMNSLKPEDTAVYYCAATSYTYVLSPYRGDYWGQGTQVTVSS | high polyreactivity
17 | QVQLVESGGGLVQAGGSLRLSCAASGFTFGWYAMGWYRQAPGKERELVASISWSGSTTYYADSVKGRFTISRDNAKNTVYLQMNSLKPEDTAVYYCNARRSYVRNDFDYWGQGTQVTVSS | high polyreactivity
18 | QVQLVESGGGLVQAGGSLRLSCAASGFTFGWYAMGWYRQAPGKERELVATISWSGSSTYYADSVKGRFTISRDNAKNTVYLQMNSLKPEDTAVYYCNAVYGRFVVLRYDYWGQGTQVTVSS | high polyreactivity
19 | QVQLVESGGGLVQAGGSLRLSCAASGFTFGWYDMGWYRQAPGKERELVASISWSGSSTYYADSVKGRFTISRDNAKNTVYLQMNSLKPEDTAVYYCATPYWRRYDYWGQGTQVTVSS | high polyreactivity
20 | QVQLVESGGGLVQAGGSLRLSCAASGFTFGYYAMGWYRQAPGKEREFVARISWSGDSTYYADSVKGRFTISRDNAKNTVYLQMNSLKPEDTSVYYCAAVVQTSWGKWNDYWGPGTQVTVSS | high polyreactivity
21 | QVQLVESGGGLVQAGGSLRLSCAASGFTFGYYAMGWYRQAPGKERELVAAIRSSGGSTYYADSVKGRFTISRDNAKNTVYLQMNSLKPEDTAVYYCAVLYGYRSSSRYGYDSWGQGTQVTVSS | high polyreactivity
22 | QVQLVESGGGLVQAGGSLRLSCAASGFTFGYYAMGWYRQAPGKERELVAAISKRGGSTYYADSVKGRFTISRDNAKNTVYLQMNSLKPEDTAVYYCATRYTGYPFYGYDYWGQGTQVTVSS | high polyreactivity

Row | Sequence | polyreactivity (PSR sort gate)
23 | QVQLVESGGGLVQAGGSLRLSCAASGFTFGYYAMGWYRQAPGKERELVAAITGSGGSTYYADSVKGRFTISRDNAKNTVYLQMNSLKPEDTAVYYCAADKAVYRGSPKNRSPYYYWGQGTQVTVSS | high polyreactivity
24 | QVQLVESGGGLVQAGGSLRLSCAASGFTFGYYSMGWYSQAPGKERELVAAISSGGNTNYADSVKGRFTISRDNAKNTVYLQMNSLKPEDTAVYYCNSRSWRYYKTYSAFNYWGQGTQVTVSS | high polyreactivity
25 | QVQLVESGGGLVQAGGSLRLSCAASGFTFGYYVRGWYRQAPGKERELVAAITSGGSTYYADSVKGRFTISRDNAKNTVYLQMNSLKPEDTAVYYCAAFLGATYYYWGQGTQVTVSS | high polyreactivity
26 | QVQLVESGGGLVQAGGSLRLSCAASGFTFHDYAMGWYRQAPGKERELVAAITKSGGRTYYADSVKGRFTISRDNAKNTVYLQMNSLKPEDTAVYYCNAVTLRRIYSNPEYDSWGQGTQVTVSS | high polyreactivity
27 | QVQLVESGGGLVQAGGSLRLSCAASGFTFHGNAMGWYRQAPGKERELVAVISSSGASTYYADSVKGRFTISRDNAKNTVYLQMNSLKPEDTAVYYCAKVSSPLLYVSSDYDYWGQGTQVTVSS | high polyreactivity
28 | QVQLVESGGGLVQAGGSLRLSCAASGFTFHNNVMGWYRQAPGKERELVATISKSGGSTYYADSVKGRFTISRDNAKNTVYLQMNSLKPEDTAVYYCAALYPYQYVRGGYWGQGTQVTVSS | high polyreactivity
29 | QVQLVESGGGLVQAGGSLRLSCAASGFTFHSYAMGWYRQAPGKDRELVAAISRGGGNTYYADSVKGRFTISRDNAKNTVYLQMNSLKPEDTAVYYCAADAIYNFEMDYWGQGTQVTVSS | high polyreactivity
30 | QVQLVESGGGLVQAGGSLRLSCAASGFTFHSYAMGWYRQAPGKERELVAAISRGGGSTYYADSVKGRFTISRDNAKYTVYLQMNSLKPEDTAVYYCAARGQGGYRVGYYYWGQGTQVTVSS | high polyreactivity
31 | QVQLVESGGGLVQAGGSLRLSCAASGFTFHSYAMGWYRQAPGKERELVAAISTGGTRTYYADSVMGRVTISRDNAKNTVYLQMNSLKPEDTAVYYCAADLYRGVRIYSKYDSWGQGTQVTVSS | high polyreactivity
32 | QVQLVESGGGLVQAGGSLRLSCAASGFTFHWYAMGWYRQAPGKERELVAAISSGSSTYYADSVKGRFTISRDNAKNTVYLQMKSLKPEDTAVYYCNVVLYKYSPTESWITYDYWGQGTQVTVSS | low polyreactivity
33 | QVQLVESGGGLVQAGGSLRLSCAASGFTFHYYDMGWYRQAPGKERELVASISWSGGDTYYADSVKGRFTISRDNAKNTVYLQMNSLKPEDTAVYYCAADPTQEVQYLTPYTYDYWGQGTQVTVSS | low polyreactivity
34 | QVQLVESGGGLVQAGGSLRLSCAASGFTFIGNAMGWYRQAPGKERELVAAISWRGGSTYYADSVKGRFTISRDNAKNTVYLQMNSLKPEDTAVYYCNKVPRRVSRSERDYWGQGTQVTVSS | high polyreactivity
35 | QVQLVESGGGLVQAGGSLRLSCAASGFTFIHYGMGWYRQAPGKERELVAAITWRGDRTYADSVKGRFTISRDNAKNTVYLQMNSLKPEDTAVYYCAVGFYYFSSWYSYDYWGQGTQVTVSS | high polyreactivity
36 | QVQLVESGGGLVQAGGSLRLSCAASGFTFIPNAMGWYRQAPGKERELVAAISTGGSTYYADSVKGRFTISRDNAKNTVYLQMNSLKPEDTAVYYCAAGILVLKLYFSSYDYWGQGTEVTVSS | low polyreactivity
37 | QVQLVESGGGLVQAGGSLRLSCAASGFTFIRNAMGWYRQAPGKDRELVAAISRSGGSTYYADSVKGRFTISRDNAKYTVYLQMNSLKPEDTAVYYCPVTLYLKWQGGAYDYWGQGTQVTVSS | low polyreactivity
38 | QVQLVESGGGLVQAGGSLRLSCAASGFTFIRNGMGWYRQAPGKERELVAAITTSGSGTYYADSVKGRFTISRDNAKNTVYLQMNSLKPEDTAVYYCATDYRYRSYSRGAHDYWGQGTQVTVSS | low polyreactivity
39 | QVQLVESGGGLVQAGGSLRLSCAASGFTFISKAMGWYRQAPGKERELVAAISSSGGRTYYADSVKGRFTISRDHAKYTVYLQMNSLKPEDTALYYCNADRSLLYSRKIEYDYWGQGTQVTVSS | low polyreactivity
40 | QVQLVESGGGLVQAGGSLRLSCAASGFTFISYAMGWYSQAPGQERELVAAISSTGGSTYYADSVKGRFTSSRDTAKKTVYLQMNSLKPEETAVYYCNAVYWYTSEYDYWGQGTQVTVSS | high polyreactivity
41 | QVQLVESGGGLVQAGGSLRLSCAASGFTFITNAMGWYRQAPGNERELVASISIGGSTNYADSVKGRFTISRDNAKNTVYLQMTSLKPEDTAVYYCAARVYRRLFLPGRYGRPLGYWGQGTQVTVSS | high polyreactivity
42 | QVQLVESGGGLVQAGGSLRLSCAASGFTFITYAMGGHRQAPGKERELVAAIRTGGGTNYADSVKGRFTISRDNAKNTVYLQMNSLKPEDTAVYYCAKGRQGVSYLTGTYGCRYYWGQGTQVTVSS | low polyreactivity
43 | QVQLVESGGGLVQAGGSLRLSCAASGFTFKENTIGRYRQAPGKEMELVAAMSWSGGGTYYADSVKGRFTISRDNGKNTVYLQMNSLKPEDTAVYYCAALQRRDHNGDYWGQGTQVTVSS | low polyreactivity
